Results as given in paper PMC7770097 (Biochimica et biophysica acta. Proteins and proteomics, 2020).

How the values were obtained:
[1] = target: full-length uPA (human urokinase plasminogen activator) (Homo sapiens, UniProt P00749, biotin (biotinylated antigen on streptavidin biosensors)); experiment: BLI
[2] = target: human uPA (form not stated) (human, UniProt P00749); experiment: ELISA

binding result [1]: binds
binding result [2]: binds
B1: AB2 Fab (Fab, V domains shown)
VH: QLTQSGGGLVKPGRSLRLSCTASGFTFGDYAMSWVRQAPGKGLEWVGFVRSESAGATTEYAASVKGRFTISRDDSKSIAYLQMNALKTEDTAVYYCIRGANWNWGQGTLVTVSS
VL: EIVLTQSPLSLPVTPGEPASISCRSSQLMNRNGNNFLDWYLQKPGQSPQLLIYLGSNRAPGVPDRFSGSGSGTDFTLKISRVEAEDVGVYYCMARVEAPYSFGQGTKLEIR
